# Data published in US20020137677A1.
# How the values were obtained:
# Assay in all cases: cell-based or functional assay
# [1] = biological target: human zalpha11 receptor, full-length, on cells (human) (UniProt Q9HBE5)
# [2] = biological target: mouse zalpha11 receptor, on cells (mouse)
# [3] = biological target: human zalpha11 Ligand (human) (UniProt Q9HBE4)
# UniProt Q9HBE4, sequence (Q9HBE4 32-162 limits assumed, form in doubt): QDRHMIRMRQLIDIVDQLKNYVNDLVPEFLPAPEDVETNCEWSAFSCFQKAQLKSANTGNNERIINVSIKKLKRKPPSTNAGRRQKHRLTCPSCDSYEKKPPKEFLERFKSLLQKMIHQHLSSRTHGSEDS
# UniProt Q9HBE5, sequence (Q9HBE5 20-538 limits assumed): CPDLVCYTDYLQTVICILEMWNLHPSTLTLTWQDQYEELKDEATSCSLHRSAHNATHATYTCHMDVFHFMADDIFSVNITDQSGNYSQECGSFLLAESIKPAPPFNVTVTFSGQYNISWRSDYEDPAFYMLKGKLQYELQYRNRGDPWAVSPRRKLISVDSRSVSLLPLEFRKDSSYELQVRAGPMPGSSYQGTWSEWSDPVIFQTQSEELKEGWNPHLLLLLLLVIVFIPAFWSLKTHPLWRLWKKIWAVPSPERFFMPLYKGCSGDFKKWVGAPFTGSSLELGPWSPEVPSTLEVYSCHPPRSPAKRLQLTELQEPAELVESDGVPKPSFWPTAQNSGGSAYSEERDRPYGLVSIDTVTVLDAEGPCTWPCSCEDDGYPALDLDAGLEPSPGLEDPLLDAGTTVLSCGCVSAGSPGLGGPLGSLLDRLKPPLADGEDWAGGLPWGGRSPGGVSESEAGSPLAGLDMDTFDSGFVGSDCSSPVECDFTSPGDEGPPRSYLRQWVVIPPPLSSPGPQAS
Substance,STAT luciferase reporter response of BaF3/KZ134/Zalpha11 cells (fold over media-only control) [1],proliferation of BaF3/Zalpha11 cells (Alamar Blue) (fold over background) [1],STAT luciferase reporter response of untransfected BaF3/KZ134 control cells [2] [fold],"inhibition of BaF3/zalpha11 proliferation (Alamar Blue), concentration completely inhibiting 3 ng/ml human zalpha11 Ligand [3] [µg/mL]",potency in inhibiting human zalpha11 Ligand relative to the homodimeric soluble zalpha11 receptor (zalpha11-Fc4) [3] [fold]
mouse zalpha11 Ligand,40,5,5,–,–
soluble human zalpha11 receptor/human IL-2Rγ receptor heterodimer (hzalpha11/IgGγ1 + hIL-2Rγ/human κ light chain) (Fc fusion),–,–,–,0.312,30 to 100
